Measured values: the supplement of paper PMC9233669
This sample holds only a part of the variants without activity.

What was measured:
biotinyl-Val-oxazolone = assay: self-aminoacylation, catalytic enhancement (BVO) (fold over background); higher = more active; k-Seq, kA / k0A0; sequences stand for … in GGGAAUGGAUCCACAUCUACGAAUUC…UUCACUGCAGACUUGACGAAGCUG
Procedure, shortened: (§1)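 The uncatalyzed rate is the low-activity peak of a bimodal Gaussian fit, and catalytic enhancement is median kA divided by it. The kA values came from pseudo-first-order fits, with 1000 bootstraps, of per-sequence fraction reacted measured by streptavidin capture, triplicate qPCR and Illumina sequencing. Mutagenized RNA pools with a 21-nt variable region (0.43 μM) were reacted with each biotinyl-aminoacyl-oxazolone at 2–1250 μM in 50 μL HEPES/NaCl/KCl/MgCl2/CaCl2 buffer with 5% acetonitrile, pH 6.9–7.0, for 90 minutes at room temperature.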

biotinyl-Phe-oxazolone = assay: self-aminoacylation, catalytic enhancement (BFO) (fold over background); higher = more active; k-Seq, kA / k0A0; sequences stand for … in GGGAAUGGAUCCACAUCUACGAAUUC…UUCACUGCAGACUUGACGAAGCUG
Procedure, shortened: as §1

biotinyl-Ile-oxazolone = assay: self-aminoacylation, catalytic enhancement (BIO) (fold over background); higher = more active; k-Seq, kA / k0A0; sequences stand for … in GGGAAUGGAUCCACAUCUACGAAUUC…UUCACUGCAGACUUGACGAAGCUG
Procedure, shortened: as §1

biotinyl-Trp-oxazolone = assay: self-aminoacylation, catalytic enhancement (BWO) (fold over background); higher = more active; k-Seq, kA / k0A0; sequences stand for … in GGGAAUGGAUCCACAUCUACGAAUUC…UUCACUGCAGACUUGACGAAGCUG
Procedure, shortened: as §1

biotinyl-Met-oxazolone = assay: self-aminoacylation, catalytic enhancement (BMO) (fold over background); higher = more active; k-Seq, kA / k0A0; sequences stand for … in GGGAAUGGAUCCACAUCUACGAAUUC…UUCACUGCAGACUUGACGAAGCUG
Procedure, shortened: as §1

biotinyl-Leu-oxazolone = assay: self-aminoacylation, catalytic enhancement (BLO) (fold over background); higher = more active; k-Seq, kA / k0A0; sequences stand for … in GGGAAUGGAUCCACAUCUACGAAUUC…UUCACUGCAGACUUGACGAAGCUG
Procedure, shortened: as §1

Sequence	self-aminoacylation (biotinyl-Val-oxazolone)	self-aminoacylation (biotinyl-Phe-oxazolone)	self-aminoacylation (biotinyl-Ile-oxazolone)	self-aminoacylation (biotinyl-Trp-oxazolone)	self-aminoacylation (biotinyl-Met-oxazolone)	self-aminoacylation (biotinyl-Leu-oxazolone)
AUUCACCUAGGUCAUUUGGUG [Fam2.2 aminoacylation ribozyme variant]	2.03	21.2	2.13	3.43	3.31	4.82
CAACUCUUCAAGCAAUCGGUC [Fam1B.1 aminoacylation ribozyme variant]	1.04	9.86	1.05	6.16	1.16	1.33
AUGCACCUUGGUCAUCGGGUG [Fam2.2 aminoacylation ribozyme variant]	5.41	65.4	5.37	8.29	7.63	9.83
CUACUUCAAACAAUCGGUUCG [Fam1A.1 aminoacylation ribozyme variant]	0.767	2.97	0.687	0.98	0.615	0.63
CCUCACUUCAAGCGAUCGGUC [Fam1B.1 aminoacylation ribozyme variant]	1.29	2.38	1.19	2.72	1.27	1.53
AUCCACCUAGGUCGUCGGGUG [Fam2.2 aminoacylation ribozyme variant]	2.56	9.53	2.36	2.22	2.62	3.5
CUGCUUCACACAAUCGGUCUG [Fam1A.1 aminoacylation ribozyme variant]	0.757	0.641	0.733	0.824	0.911	0.836
AUUGCCCUGGUCAUCGAAUGA [Fam2.1 aminoacylation ribozyme variant]	1.29	0.641	1.05	0.773	1.29	1.34
ACUACCCCGGUCAUCGAGUGA [Fam2.1 aminoacylation ribozyme variant]	2.87	30.8	3.29	5.9	5.95	5.9
CCUCACUUCAAGCAAUCCGUC [Fam1B.1 aminoacylation ribozyme variant]	0.873	1.94	0.935	0.756	0.613	0.736
CCACAAUUCAAGCGAUCGGUC [Fam1B.1 aminoacylation ribozyme variant]	1.47	1.53	1.37	1.12	1.28	1.56
CUACUUCAAACAAUCAGUGUG [Fam1A.1 aminoacylation ribozyme variant]	0.972	2.23	0.867	0.975	0.936	0.745
AAUAGCCUGGUCAUCGAGUGA [Fam2.1 aminoacylation ribozyme variant]	4.05	18.6	4.15	7.5	4.77	4.95
CAACACUUCAAGGAAUCGGUC [Fam1B.1 aminoacylation ribozyme variant]	1.03	3.28	1.47	3.1	1.07	0.95
CAGUUUGCUAAUAGUGGCAAG [Fam3.1 aminoacylation ribozyme variant]	0.882	0.616	0.854	0.985	1.04	0.854
AUUAUCCUGGUUAUCGAGUGA [Fam2.1 aminoacylation ribozyme variant]	4.88	71.3	5.55	14.7	12.2	13.5
CCACACUUUUAGCAAUCGGUC [Fam1B.1 aminoacylation ribozyme variant]	0.942	0.974	0.874	0.678	0.767	0.845
AUUCACCUAGGUCAUCCUGUG [Fam2.2 aminoacylation ribozyme variant]	0.885	1.42	1.13	0.316	0.923	1.04
AUUCGCCUAGGUUAUCGGGUG [Fam2.2 aminoacylation ribozyme variant]	4.33	42.5	3.77	5.88	5.77	6.76
AUUCCACUAGGUCAUCGGGUG [Fam2.2 aminoacylation ribozyme variant]	6.23	77.2	6.56	8.98	9.49	14.2
CCACACUUCAAGCACGCGGUC [Fam1B.1 aminoacylation ribozyme variant]	2.1	0.928	1.76	1.91	2.3	1.54
CCACACUUCAAGCAAUGGGUC [Fam1B.1 aminoacylation ribozyme variant]	0.793	0.841	0.78	0.627	0.677	0.677
AAGUUUACUAAUAGUCUCAAG [Fam3.1 aminoacylation ribozyme variant]	1.29	2.39	1.15	1.23	0.844	1.11
AUUCACAUAGGUCAUCGUGUG [Fam2.2 aminoacylation ribozyme variant]	0.841	2.09	0.867	0.867	0.835	0.942
CCCCACUUCAAGCAAUCGCUC [Fam1B.1 aminoacylation ribozyme variant]	2.55	8.76	2.08	4.28	2.93	2.99
CCACACUUCAAGCAACCGGUC [Fam1B.1 aminoacylation ribozyme variant]	1.01	1.31	0.933	0.935	0.783	0.721

Sequence	self-aminoacylation (biotinyl-Val-oxazolone)	self-aminoacylation (biotinyl-Phe-oxazolone)	self-aminoacylation (biotinyl-Ile-oxazolone)	self-aminoacylation (biotinyl-Trp-oxazolone)	self-aminoacylation (biotinyl-Met-oxazolone)	self-aminoacylation (biotinyl-Leu-oxazolone)
ACUAUCCUGGUCAUCGAGUGA [Fam2.1 aminoacylation ribozyme variant]	3.62	18.4	3.7	8.06	6.19	6.46
AUUAACCUAGCUCAUCGGGUG [Fam2.2 aminoacylation ribozyme variant]	1.79	8.47	1.79	1.86	1.96	1.65
AUUCACCUAGGUAAUCGGGCG [Fam2.2 aminoacylation ribozyme variant]	1.65	7.69	1.63	2.33	1.66	2.62
AGGUUGGCUAAUAGUCGCAAG [Fam3.1 aminoacylation ribozyme variant]	1.7	2.19	1.74	2.29	1.97	1.88
AUUACCCUGGUGAUCGAGUAA [Fam2.1 aminoacylation ribozyme variant]	1.23	0.541	1.24	2.15	1.54	1.21
AUUACCCCGGUCAUCGAGUAA [Fam2.1 aminoacylation ribozyme variant]	1.26	5.28	1.53	2.01	1.2	1.9
CGACACUUCAAGCAAUCAGUC [Fam1B.1 aminoacylation ribozyme variant]	0.822	13.2	0.815	4.25	0.774	0.903
AUUACCCUCGUCAUCCAGUGA [Fam2.1 aminoacylation ribozyme variant]	1.29	1.18	1.44	1.02	1.51	1.94
CCAAACUUCAAGCAGUCGGUC [Fam1B.1 aminoacylation ribozyme variant]	1.18	0.806	1.29	0.793	1.01	1.1
AAUCACCUAGGUCACCGGGUG [Fam2.2 aminoacylation ribozyme variant]	4.04	21.8	4.26	6.06	4.08	5.27
AAGUUUGCAAAUAGUCGCAAC [Fam3.1 aminoacylation ribozyme variant]	0.838	0.731	0.917	1.01	1.07	1.01
AUUACCUUGGUCAUCCAGUGA [Fam2.1 aminoacylation ribozyme variant]	2.84	22.5	3.16	5.48	4.51	4.83
AUUAACCUGGUCAUUGAGUGA [Fam2.1 aminoacylation ribozyme variant]	4.05	53.1	4.38	12	9.39	9.89
AUUCACCUAGGUCAUCGUGUC [Fam2.2 aminoacylation ribozyme variant]	0.474	0.307	0.461	0.514	0.403	0.498
AUUACGCCGGUCAUCGAGUGA [Fam2.1 aminoacylation ribozyme variant]	4.89	81.9	3.94	8.28	7.36	7.93
CCACGCUUCAAGCAAUCGGUA [Fam1B.1 aminoacylation ribozyme variant]	1.14	1.37	0.724	1.13	0.873	0.943
CUACUUCACACAAUAGGUCUG [Fam1A.1 aminoacylation ribozyme variant]	0.605	1.01	0.6	0.394	0.474	0.469
AUCCACCUACGUCAUCGGGUG [Fam2.2 aminoacylation ribozyme variant]	3.75	41.3	4.29	4.86	6.46	6.58
AAGUUGGCUAAUAGGCGCAAG [Fam3.1 aminoacylation ribozyme variant]	1.23	1.49	1.71	1.19	1.14	1.41
AUUCACCGAGGUCAACGGGUG [Fam2.2 aminoacylation ribozyme variant]	3.27	36.9	3.52	5.14	5.75	8.52
AAGUUUGCUAAUAGUCGUACG [Fam3.1 aminoacylation ribozyme variant]	0.565	1.11	0.65	0.579	0.547	0.524
AUUCACCUAGGUCAUCACGUG [Fam2.2 aminoacylation ribozyme variant]	2.62	23.1	2.03	3.56	3.99	4.54
CCACAAUUCAAGCAAUCAGUC [Fam1B.1 aminoacylation ribozyme variant]	0.876	1.54	0.933	0.762	0.673	0.763
CGACACUUCAAGCAAUCGCUC [Fam1B.1 aminoacylation ribozyme variant]	1.96	2.06	2.1	2.2	1.64	2.26
AUUAACCUCGUCAUCGAGUGA [Fam2.1 aminoacylation ribozyme variant]	2.25	3.89	2.33	4.68	3.27	2.82
